The target in assay [1] is Spindlin1 (residues 50-262) (human, UniProt Q9Y657 50-262). The experiment in a line: NMR titration.
Assay [2] concerns the target Spindlin1^C96A/H252F (residues 50-262) (human, UniProt Q9Y657 50-262, C96A | H252F). The experiment in a line: NMR titration.

Consider 2 molecules from article doi:10.1101/2025.11.05.686744 (bioRxiv, 2025).

Where a chain is given by its changes, count along the chain named. Numbers in names are those of the source.

Chain of Spindlin1^C96A/H252F (residues 50-262) (Q9Y657 50-262 C96A/H252F): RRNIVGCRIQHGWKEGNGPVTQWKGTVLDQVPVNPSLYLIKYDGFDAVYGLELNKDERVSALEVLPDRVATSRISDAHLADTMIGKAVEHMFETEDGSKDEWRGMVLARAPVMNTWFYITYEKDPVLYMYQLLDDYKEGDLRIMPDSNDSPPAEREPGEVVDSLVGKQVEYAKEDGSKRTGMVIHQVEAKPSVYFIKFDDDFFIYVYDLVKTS
Chain of Spindlin1 (residues 50-262) (Q9Y657 50-262): as the sequence (Q9Y657 50-262 C96A/H252F) above, with A47C, F203H counted along it

B1: HBx_(1-120) protein genotype D (Hepatitis B virus protein X, short isoform) (domain or fragment)
chain: MAARLCCQLDPARDVLCLRPVGAESCGRPFSGSLGTLSSPSPSAVPTDHGAHLSLRGLPVCAFSSAGPCALRFTSARRMETTVNAHQILPKVLHKRTLGLSAMSTTDLEAYFKDCLFKDW
B1: the binding result in assay [1] is recorded as “binds”.

B2: HBx_(1-120)^C61A/C69A (domain or fragment, Hepatitis B virus genotype D, UniProt P03165 1-120, looked up)
chain: B1 chain with C61A, C69A
On to B2, for which the binding result in assay [2] is listed as “binds”.
